Results taken from paper PMC6247239 (Protein Science : A Publication of the Protein Society, 2018).

B3: FtsZ (natural protein)
chain: MFEPMELTNDAVIKVIGVGGGGGNAVEHMVRERIEGVEFFAVNTDAQALRKTAVGQTIQIGSGITKGLGAGANPEVGRNAADEDRDALRAALEGADMVFIAAGMGGGTGTGAAPVVAEVAKDLGILTVAVVTKPFNFEGKKRMAFAEQGITELSKHVDSLITIPNDKLLKVLGRGISLLDAFGAANDVLKGAVQGIAELITRPGLMNVDFADVRTVMSEMGYAMMGSGVASGEDRAEEAAEMAISSPLLEDIDLSGARGVLVNITAGFDLRLDEFETVGNTIRAFASDNATVVIGTSLDPDMNDELRVTVVATGIGMDKRPEITLVTNKQVQQPVMDRYQQHGMAPLTQEQKPVAKVVNDNAPQTAKEPDYLDIPAFLRKQAD

Key:
[1] = biological target: Beclin-1 lacking the BARA domain (human)
[2] = biological target: PBP2a (Staphylococcus aureus (MRSA))
[3] = biological target: BECN1 coiled-coil domain (Homo sapiens) (UniProt Q14457); conditions: cited from earlier work
Ras = Ras (UniProt P01112)
[4] = biological target: radical-generating subunit of the class I ribonucleotide reductase of Leeuwenhoekiella blandensis (Leeuwenhoekiella blandensis); assay: multi-detection SEC, GEMMA, DLS
[5] = biological target: procaspase-2 phosphorylated at S139 and S164 (human) (UniProt P42575); assay: fluorescence polarisation + native gel or EMSA + SEC + AUC
FtsZ = biological target: B3; assay: co-sedimentation
[6] = biological target: the molecule itself; assay: SEC + other: dynamic light scattering, HDX-MS, spectroscopy
FtsA = biological target: T1, FtsA (Escherichia coli, UniProt P0ABH0 1-420); assay: co-sedimentation
T1 sequence: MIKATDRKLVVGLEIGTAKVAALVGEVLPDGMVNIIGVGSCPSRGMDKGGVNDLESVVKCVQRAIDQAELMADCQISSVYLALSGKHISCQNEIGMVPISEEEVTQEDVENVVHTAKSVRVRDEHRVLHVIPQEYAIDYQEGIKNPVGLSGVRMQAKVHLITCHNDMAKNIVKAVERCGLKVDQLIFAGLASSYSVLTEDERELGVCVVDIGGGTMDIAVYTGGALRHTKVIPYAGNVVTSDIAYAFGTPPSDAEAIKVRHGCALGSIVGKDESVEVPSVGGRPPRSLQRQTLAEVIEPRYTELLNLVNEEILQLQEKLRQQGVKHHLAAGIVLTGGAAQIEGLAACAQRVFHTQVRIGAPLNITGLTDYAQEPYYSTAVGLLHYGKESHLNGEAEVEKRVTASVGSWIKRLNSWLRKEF

crystal structure = biological target: the molecule itself; assay: crystal structure

Sequence of procaspase-2 phosphorylated at S139 and S164 (human) (P42575 whole entry): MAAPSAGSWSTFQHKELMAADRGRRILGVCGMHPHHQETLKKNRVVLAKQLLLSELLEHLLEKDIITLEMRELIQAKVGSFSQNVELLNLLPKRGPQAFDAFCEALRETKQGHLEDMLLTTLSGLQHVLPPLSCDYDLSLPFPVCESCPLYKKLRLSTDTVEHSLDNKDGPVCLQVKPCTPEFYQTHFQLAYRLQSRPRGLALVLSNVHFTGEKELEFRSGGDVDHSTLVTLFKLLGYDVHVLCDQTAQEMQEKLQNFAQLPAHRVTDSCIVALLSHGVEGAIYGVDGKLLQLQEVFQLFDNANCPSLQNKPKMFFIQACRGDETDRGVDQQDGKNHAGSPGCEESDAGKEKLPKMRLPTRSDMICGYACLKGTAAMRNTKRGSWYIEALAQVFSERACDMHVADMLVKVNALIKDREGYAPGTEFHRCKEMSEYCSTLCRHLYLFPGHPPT

With “Beclin-1 lacking the BARA domain (domain or fragment)” the fold weaker homodimer KD than the full-length protein [1] was 3.5 fold.

BLIP-II N50A:Y113H (natural protein) gave a Kd [2] of 0.05 µM.

In the case of “BECN1 coiled-coil domain (from UniProt Q14457)”, the Kd [3] is listed as 48 µM.

Work on “Ras (from UniProt P01112 1-189) (natural protein)” yielded a percent of the Ras population forming dimers (Ras) of less than 10%.

With “radical-generating subunit of the class I ribonucleotide reductase of Leeuwenhoekiella blandensis (enzyme)” the stoichiometry N [4] was 4.

For “14-3-3 protein (from UniProt P63104 1-245) (natural protein)”, the stoichiometry N [5] was 1.

B1: MinC (natural protein)
chain: MSNTPIELKGSSFTLSVVHLHEAEPKVIHQALEDKIAQAPAFLKHAPVVLNVSALEDPVNWSAMHKAVSATGLRVIGVSGCKDAQLKAEIEKMGLPILTEGKEKAPRPAPTPQAPAQNTTPVTKTRLIDTPVRSGQRIYAPQCDLIVTSHVSAGAELIADGNIHVYGMMRGRALAGASGDRETQIFCTNLMAELVSIAGEYWLSDQIPAEFYGKAARLQLVENALTVQPLN
B1: binds (FtsZ).

B2: human glutathione transferase M1a-1a (enzyme)
chain: MPMILGYWDIRGLAHAIRLLLEYTDSSYEEKKYTMGDAPDYDRSQWLNEKFKLGLDFPNLPYLIDGAHKITQSNAILCYIARKHNLCGETEEEKIRVDILENQTMDNHMQLGMICYNPEFEKLKPKYLEELPEKLKLYSEFLGKRPWFAGNKITFVDFLVYDVLDLHRIFEPKCLDAFPNLKDFISRFEGLEKISAYMKSSRFLPRPVFSKMAVWGNK
For B2, the “stoichiometry N” value [6] was 2.

B3: binds (FtsA).

B4: SNX16 PX-CC unit (domain or fragment)
chain: DRPSTPTILGYEVMEERAKFTVYKILVKKTPEESWVVFRRYTDFSRLNDKLKEMFPGFRLALPPKRWFKDNYNADFLEDRQLGLQAFLQNLVAHKDIANCLAVREFLCLDDPPGPFDSLEESRAFCETLEETNYRLQKELLEKQKEMESLKKLLSEKQLHIDTLENRIRTLSLEPEESLDVSETEGEQILKVESSALEVDQDVLDEESRADNKPCLSFSEPENAVSEIEVAEVAYDAEED
In the case of B4, the “stoichiometry N” value (crystal structure) is reported as 2.
